Patent publication US20230135471A1, “UBIQUITIN VARIANTS WITH IMPROVED AFFINITY FOR 53BP1” (Integrated DNA Technologies, Inc., priority 2021, published 2023)

What follows are substances tested against 53BP1 fragment (a.a. 1221-1718) fused to an adenylate cyclase fragment (two-hybrid) (UniProt Q12888) (assay: cell-based or functional assay).

| Substance | Experiment 1 Average Enrichment [log2] | Experiment 1 Rep 1 Enrichment [log2] | Experiment 1 Rep 2 Enrichment [log2] | Experiment 2 Average Enrichment [log2] | Experiment 2 Rep 1 Enrichment [log2] | Experiment 2 Rep 2 Enrichment [log2] |
| --- | --- | --- | --- | --- | --- | --- |
| i53 + N25A two-hybrid fusion (designed binder) | 0.3 | 0.12 | 0.49 | 0.4 | 0.39 | 0.4 |
| i53 + N25C two-hybrid fusion (designed binder) | 0.13 | 0.45 | -0.19 | 0.26 | 0.31 | 0.21 |
| i53 + R42C two-hybrid fusion (designed binder) | 0.42 | 0.37 | 0.47 | 0.28 | 0.54 | 0.01 |
| i53 + M1N two-hybrid fusion (designed binder) | -0.25 | -0.37 | -0.13 | 0.02 | -0.04 | 0.08 |
| i53 + K33F two-hybrid fusion (designed binder) | 1.77 | 1.91 | 1.62 | 1.02 | 1.16 | 0.87 |
| i53 + Q41Y two-hybrid fusion (designed binder) | 0.68 | 0.73 | 0.64 | 0.47 | 0.4 | 0.53 |
| i53 + K48Q two-hybrid fusion (designed binder) | 0.55 | 0.59 | 0.51 | 0.34 | 0.2 | 0.47 |
| i53 + T9I two-hybrid fusion (designed binder) | 0.46 | 0.3 | 0.61 | 0.25 | -0.01 | 0.52 |
| i53 + K48R two-hybrid fusion (designed binder) | 0.35 | 0.39 | 0.32 | 0.14 | 0.09 | 0.19 |
| i53 + N25T two-hybrid fusion (designed binder) | 0.12 | -0.19 | 0.44 | 0.29 | 0.33 | 0.24 |
| i53 + L67C two-hybrid fusion (designed binder) | 0.04 | -0.31 | 0.39 | 0.73 | 0.96 | 0.5 |
| i53 + E18N two-hybrid fusion (designed binder) | -0.45 | 0.34 | -1.23 | 0.1 | -0.64 | 0.85 |
| i53 + T14N two-hybrid fusion (designed binder) | 2.76 | 2.84 | 2.69 | 1.44 | 1.5 | 1.37 |
| i53 + S49E two-hybrid fusion (designed binder) | 0.44 | 0.84 | 0.04 | 0.81 | 0.96 | 0.67 |
| i53 + R42S two-hybrid fusion (designed binder) | -0.08 | -0.13 | -0.02 | 0.23 | 0.05 | 0.41 |
| i53 + E34T two-hybrid fusion (designed binder) | 0.12 | 2.15 | -1.91 | -3.54 | -3.26 | -3.83 |
| i53 + S57H two-hybrid fusion (designed binder) | 0.72 | 0.54 | 0.9 | 0.17 | -0.04 | 0.39 |
| i53 + V26L two-hybrid fusion (designed binder) | 0.55 | 0.4 | 0.69 | 0.55 | 0.52 | 0.58 |
| i53 + E16D two-hybrid fusion (designed binder) | -0.2 | -0.69 | 0.3 | 0.13 | 0.42 | -0.15 |
| i53 + P38Q two-hybrid fusion (designed binder) | -0.25 | 0.85 | -1.35 | 0.5 | 1.18 | -0.17 |
| i53 + A28D two-hybrid fusion (designed binder) | 0.02 | -0.25 | 0.29 | -0.41 | -0.24 | -0.58 |
| i53 + P69R two-hybrid fusion (designed binder) | -1.93 | -2.27 | -1.59 | 0.75 | 0.2 | 1.29 |
| i53 + N25L two-hybrid fusion (designed binder) | 0.43 | 0.47 | 0.39 | 0.23 | 0.26 | 0.19 |
| i53 + S49D two-hybrid fusion (designed binder) | 0.41 | 0.11 | 0.71 | 0.44 | 0.39 | 0.49 |
| i53 + S57M two-hybrid fusion (designed binder) | 0.01 | -0.11 | 0.12 | -0.04 | -0.17 | 0.09 |
| i53 + K63M two-hybrid fusion (designed binder) | -0.07 | -0.24 | 0.09 | 0.2 | 0.18 | 0.22 |
